From IntAct's records for PubMed 29892012

B1: Coiled-coil alpha-helical rod protein 1 (Homo sapiens), Q8TD31 (parent)
chain: MFPPSGSTGLIPPSHFQARPLSTLPRMAPTWLSDIPLVQPPGHQDVSERRLDTQRPQVTMWERDVSSDRQEPGRRGRSWGLEGSQALSQQAEVIVRQLQELRRLEEEVRLLRETSLQQKMRLEAQAMELEALARAEKAGRAEAEGLRAALAGAEVVRKNLEEGSQRELEEVQRLHQEQLSSLTQAHEEALSSLTSKAEGLEKSLSSLETRRAGEAKELAEAQREAELLRKQLSKTQEDLEAQVTLVENLRKYVGEQVPSEVHSQTWELERQKLLETMQHLQEDRDSLHATAELLQVRVQSLTHILALQEEELTRKVQPSDSLEPEFTRKCQSLLNRWREKVFALMVQLKAQELEHSDSVKQLKGQVASLQEKVTSQSQEQAILQRSLQDKAAEVEVERMGAKGLQLELSRAQEARRRWQQQTASAEEQLRLVVNAVSSSQIWLETTMAKVEGAAAQLPSLNNRLSYAVRKVHTIRGLIARKLALAQLRQESCPLPPPVTDVSLELQQLREERNRLDAELQLSARLIQQEVGRAREQGEAERQQLSKVAQQLEQELQQTQESLASLGLQLEVARQGQQESTEEAASLRQELTQQQELYGQALQEKVAEVETRLREQLSDTERRLNEARREHAKAVVSLRQIQRRAAQEKERSQELRRLQEEARKEEGQRLARRLQELERDKNLMLATLQQEGLLSRYKQQRLLTVLPSLLDKKKSVVSSPRPPECSASAPVAAAVPTRESIKGSLSVLLDDLQDLSEAISKEEAVCQGDNLDRCSSSNPQMSS
partner: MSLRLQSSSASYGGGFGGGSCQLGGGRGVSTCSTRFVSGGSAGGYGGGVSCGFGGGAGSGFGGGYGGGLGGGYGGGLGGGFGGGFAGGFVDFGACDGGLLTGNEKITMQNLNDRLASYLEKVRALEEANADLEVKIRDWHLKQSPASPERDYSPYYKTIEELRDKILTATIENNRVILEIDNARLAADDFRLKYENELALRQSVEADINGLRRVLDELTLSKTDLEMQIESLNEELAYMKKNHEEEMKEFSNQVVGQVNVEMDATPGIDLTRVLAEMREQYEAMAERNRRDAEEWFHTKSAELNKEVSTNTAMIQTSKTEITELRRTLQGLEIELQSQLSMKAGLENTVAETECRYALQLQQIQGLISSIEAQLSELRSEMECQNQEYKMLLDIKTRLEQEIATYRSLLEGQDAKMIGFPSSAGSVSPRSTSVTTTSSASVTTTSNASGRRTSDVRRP
B2: TBC1 domain family member 22B (Homo sapiens), Q9NU19 (parent)
chain: MAAENSKQFWKRSAKLPGSIQPVYGAQHPPLDPRLTKNFIKERSKVNTVPLKNKKASSFHEFARNTSDAWDIGDDEEEDFSSPSFQTLNSKVALATAAQVLENHSKLRVKPERSQSTTSDVPANYKVIKSSSDAQLSRNSSDTCLRNPLHKQQSLPLRPIIPLVARISDQNASGAPPMTVREKTRLEKFRQLLSSQNTDLDELRKCSWPGVPREVRPITWRLLSGYLPANTERRKLTLQRKREEYFGFIEQYYDSRNEEHHQDTYRQIHIDIPRTNPLIPLFQQPLVQEIFERILFIWAIRHPASGYVQGINDLVTPFFVVFLSEYVEEDVENFDVTNLSQDMLRSIEADSFWCMSKLLDGIQDNYTFAQPGIQKKVKALEELVSRIDEQVHNHFRRYEVEYLQFAFRWMNNLLMRELPLRCTIRLWDTYQSEPEGFSHFHLYVCAAFLIKWRKEILDEEDFQGLLMLLQNLPTIHWGNEEIGLLLAEAYRLKYMFADAPNHYRR
partner: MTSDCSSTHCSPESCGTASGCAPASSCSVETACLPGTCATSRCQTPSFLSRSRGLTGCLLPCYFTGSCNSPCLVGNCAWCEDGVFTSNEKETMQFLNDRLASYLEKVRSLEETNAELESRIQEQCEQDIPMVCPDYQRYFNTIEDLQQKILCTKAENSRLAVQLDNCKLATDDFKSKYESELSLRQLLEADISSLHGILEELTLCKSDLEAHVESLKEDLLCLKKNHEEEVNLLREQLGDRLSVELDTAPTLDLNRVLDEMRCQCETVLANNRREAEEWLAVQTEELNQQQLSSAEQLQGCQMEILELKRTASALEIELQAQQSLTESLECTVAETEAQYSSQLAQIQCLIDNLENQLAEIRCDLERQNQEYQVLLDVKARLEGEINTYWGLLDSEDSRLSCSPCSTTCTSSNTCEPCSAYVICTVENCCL
B3: TBC1 domain family member 22B (Homo sapiens), Q9NU19 (parent)
chain: B2 chain
partner: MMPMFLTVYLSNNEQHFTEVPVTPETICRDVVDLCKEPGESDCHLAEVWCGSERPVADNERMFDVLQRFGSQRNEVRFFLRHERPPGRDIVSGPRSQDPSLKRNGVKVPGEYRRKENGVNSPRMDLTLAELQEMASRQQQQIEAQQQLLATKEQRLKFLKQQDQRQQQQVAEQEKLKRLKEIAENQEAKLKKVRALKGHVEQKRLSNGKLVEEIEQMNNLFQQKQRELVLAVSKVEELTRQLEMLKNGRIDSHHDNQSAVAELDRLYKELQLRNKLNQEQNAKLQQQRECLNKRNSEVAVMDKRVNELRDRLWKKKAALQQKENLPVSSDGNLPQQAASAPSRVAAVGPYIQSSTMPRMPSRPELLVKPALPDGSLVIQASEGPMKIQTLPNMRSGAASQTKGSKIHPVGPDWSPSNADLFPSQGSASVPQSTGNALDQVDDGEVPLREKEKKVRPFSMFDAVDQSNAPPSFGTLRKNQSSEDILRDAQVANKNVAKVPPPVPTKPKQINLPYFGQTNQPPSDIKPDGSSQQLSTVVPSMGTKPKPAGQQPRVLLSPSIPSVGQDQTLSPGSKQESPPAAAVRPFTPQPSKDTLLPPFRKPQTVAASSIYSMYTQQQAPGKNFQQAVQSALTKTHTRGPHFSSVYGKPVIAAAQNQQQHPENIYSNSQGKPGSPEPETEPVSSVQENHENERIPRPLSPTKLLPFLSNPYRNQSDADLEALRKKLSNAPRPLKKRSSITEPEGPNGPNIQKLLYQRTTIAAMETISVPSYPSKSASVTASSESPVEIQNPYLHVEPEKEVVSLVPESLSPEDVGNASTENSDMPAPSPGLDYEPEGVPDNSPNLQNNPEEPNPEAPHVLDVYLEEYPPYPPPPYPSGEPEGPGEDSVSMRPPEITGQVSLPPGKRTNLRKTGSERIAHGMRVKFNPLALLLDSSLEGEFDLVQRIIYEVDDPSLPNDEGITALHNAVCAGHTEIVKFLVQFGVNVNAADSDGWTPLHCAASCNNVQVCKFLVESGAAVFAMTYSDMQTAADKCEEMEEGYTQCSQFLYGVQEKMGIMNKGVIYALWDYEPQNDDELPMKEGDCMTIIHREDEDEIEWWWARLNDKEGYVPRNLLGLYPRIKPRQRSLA
B4: Coiled-coil alpha-helical rod protein 1 (Homo sapiens), Q8TD31 (parent)
chain: B1 chain
partner: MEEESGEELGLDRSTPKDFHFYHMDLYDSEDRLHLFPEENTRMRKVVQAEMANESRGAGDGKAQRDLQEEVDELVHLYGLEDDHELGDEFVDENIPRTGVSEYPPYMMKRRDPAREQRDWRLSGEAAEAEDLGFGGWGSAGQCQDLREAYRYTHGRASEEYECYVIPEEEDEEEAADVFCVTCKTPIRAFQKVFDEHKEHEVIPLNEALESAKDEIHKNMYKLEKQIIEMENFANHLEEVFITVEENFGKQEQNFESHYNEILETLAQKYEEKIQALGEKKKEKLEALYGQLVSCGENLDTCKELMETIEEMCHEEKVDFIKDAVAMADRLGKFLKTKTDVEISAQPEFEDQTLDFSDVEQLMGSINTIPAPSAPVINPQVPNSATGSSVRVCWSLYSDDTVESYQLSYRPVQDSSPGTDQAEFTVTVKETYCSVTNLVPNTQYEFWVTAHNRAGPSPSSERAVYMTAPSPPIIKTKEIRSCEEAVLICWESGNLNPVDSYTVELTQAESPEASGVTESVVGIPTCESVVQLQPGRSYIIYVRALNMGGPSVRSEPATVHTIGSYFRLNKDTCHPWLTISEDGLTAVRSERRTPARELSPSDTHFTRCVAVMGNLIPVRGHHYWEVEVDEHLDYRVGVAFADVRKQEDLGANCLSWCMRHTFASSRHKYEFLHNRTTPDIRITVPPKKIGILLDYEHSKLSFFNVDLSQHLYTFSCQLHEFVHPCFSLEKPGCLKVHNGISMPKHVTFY

Variants of: B1
Details: with KRT13, P13646
With W337R the “effect of a mutation on the interaction” value was “disrupting interaction strength”.

Variants of: B2
Details: with KRT40, Q6A162
In the case of A349T, the “effect of a mutation on the interaction” value is reported as “disrupting interaction strength”.

Variants of: B3
Details: with aspp2_human TP53BP2, Q13625
For A349T, the “effect of a mutation on the interaction” value was “disrupting interaction strength”.

Variants of: B4
Details: with fsd2_human FSD2, A1L4K1
In the case of W337R, the “effect of a mutation on the interaction” value is reported as “with no effect”.
